Paper PMC4005696, “Type III restriction endonucleases are heterotrimeric: comprising one helicase–nuclease subunit and a dimeric methyltransferase that binds only one specific DNA” (Nucleic Acids Research, 2014)

Assays:
[1] = biological target: T1, EcoP15I Res subunit (commercial enzyme from New England Biolabs) (Escherichia coli, UniProt Q5ZND2 1-970); experiment: SEC-MALS; 0.5–1.0 mg/ml (1.25–2.5 µM) enzyme, Superdex 200, Standard Assay Buffer minus BSA (50 mM Tris–HCl pH 8.0, 50 mM KCl, 10 mM MgCl2, 1 mM DTT), room temperature; enzyme alone or with excess Hex-labelled specific 50-mer DNA, with or without 1 mM ATP; conditions: both partners purified
T1 construct: Res subunit of the Type III restriction endonuclease EcoP15I, Escherichia coli; also called EcoP15I NEB; commercially available EcoP15I; source: bought: NEB (catalogue no. R0646S)
T1 sequence (looked up): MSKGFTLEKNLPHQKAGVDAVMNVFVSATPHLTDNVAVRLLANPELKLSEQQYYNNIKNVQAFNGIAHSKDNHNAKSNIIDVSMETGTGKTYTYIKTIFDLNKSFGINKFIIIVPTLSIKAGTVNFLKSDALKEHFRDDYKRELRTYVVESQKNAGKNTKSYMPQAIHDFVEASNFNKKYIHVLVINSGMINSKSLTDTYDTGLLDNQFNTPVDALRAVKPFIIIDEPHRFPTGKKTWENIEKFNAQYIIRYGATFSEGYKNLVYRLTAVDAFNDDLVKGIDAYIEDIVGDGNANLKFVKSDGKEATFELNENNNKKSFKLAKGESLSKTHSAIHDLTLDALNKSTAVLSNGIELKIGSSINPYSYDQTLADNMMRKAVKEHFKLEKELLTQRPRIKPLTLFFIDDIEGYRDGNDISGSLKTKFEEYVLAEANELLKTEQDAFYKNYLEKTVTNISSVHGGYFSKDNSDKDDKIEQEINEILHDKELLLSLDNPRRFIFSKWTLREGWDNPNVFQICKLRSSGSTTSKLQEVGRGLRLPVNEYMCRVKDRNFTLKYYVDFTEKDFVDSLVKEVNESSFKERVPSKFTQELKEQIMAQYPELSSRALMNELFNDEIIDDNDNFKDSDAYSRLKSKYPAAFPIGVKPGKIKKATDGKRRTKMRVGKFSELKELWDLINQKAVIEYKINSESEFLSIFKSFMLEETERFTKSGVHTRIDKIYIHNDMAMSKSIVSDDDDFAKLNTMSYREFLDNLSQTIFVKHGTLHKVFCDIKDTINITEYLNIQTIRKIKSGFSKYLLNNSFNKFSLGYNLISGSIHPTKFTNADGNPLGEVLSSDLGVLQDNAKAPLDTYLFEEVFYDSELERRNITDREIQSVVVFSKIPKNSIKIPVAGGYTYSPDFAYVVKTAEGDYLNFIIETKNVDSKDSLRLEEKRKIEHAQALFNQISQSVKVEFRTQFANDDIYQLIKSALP

[2] = biological target: T2, EcoPI holoenzyme (Res1Mod2) (Escherichia coli, UniProt P08764;P08763 1-970;1-646); experiment: native MS; no ATP; 1:1 complex 288.1 kDa; SEC-MALS: 50 mM Tris-HCl pH 8.0, 50 mM KCl, 10 mM MgCl2, 1 mM DTT, 0.1 mg/ml BSA (Standard Assay Buffer), 20 C; native MS: volatile ammonium acetate buffer, enzyme:DNA 1:2; conditions: protein: recombinant; tags: none; copies: 1;2
[3] = biological target: T2, EcoPI holoenzyme (Res1Mod2); experiment: SEC-MALS; 10 mM Mg2+, no ATP; 1:1 Res1Mod2:DNA; SEC-MALS: 50 mM Tris-HCl pH 8.0, 50 mM KCl, 10 mM MgCl2, 1 mM DTT, 0.1 mg/ml BSA (Standard Assay Buffer), 20 C; native MS: volatile ammonium acetate buffer, enzyme:DNA 1:2; conditions: protein: recombinant; tags: none; copies: 1;2; label: 5'-Hex (12C linker) on top strand

T2 sequence (P08764 whole entry, one chain of several): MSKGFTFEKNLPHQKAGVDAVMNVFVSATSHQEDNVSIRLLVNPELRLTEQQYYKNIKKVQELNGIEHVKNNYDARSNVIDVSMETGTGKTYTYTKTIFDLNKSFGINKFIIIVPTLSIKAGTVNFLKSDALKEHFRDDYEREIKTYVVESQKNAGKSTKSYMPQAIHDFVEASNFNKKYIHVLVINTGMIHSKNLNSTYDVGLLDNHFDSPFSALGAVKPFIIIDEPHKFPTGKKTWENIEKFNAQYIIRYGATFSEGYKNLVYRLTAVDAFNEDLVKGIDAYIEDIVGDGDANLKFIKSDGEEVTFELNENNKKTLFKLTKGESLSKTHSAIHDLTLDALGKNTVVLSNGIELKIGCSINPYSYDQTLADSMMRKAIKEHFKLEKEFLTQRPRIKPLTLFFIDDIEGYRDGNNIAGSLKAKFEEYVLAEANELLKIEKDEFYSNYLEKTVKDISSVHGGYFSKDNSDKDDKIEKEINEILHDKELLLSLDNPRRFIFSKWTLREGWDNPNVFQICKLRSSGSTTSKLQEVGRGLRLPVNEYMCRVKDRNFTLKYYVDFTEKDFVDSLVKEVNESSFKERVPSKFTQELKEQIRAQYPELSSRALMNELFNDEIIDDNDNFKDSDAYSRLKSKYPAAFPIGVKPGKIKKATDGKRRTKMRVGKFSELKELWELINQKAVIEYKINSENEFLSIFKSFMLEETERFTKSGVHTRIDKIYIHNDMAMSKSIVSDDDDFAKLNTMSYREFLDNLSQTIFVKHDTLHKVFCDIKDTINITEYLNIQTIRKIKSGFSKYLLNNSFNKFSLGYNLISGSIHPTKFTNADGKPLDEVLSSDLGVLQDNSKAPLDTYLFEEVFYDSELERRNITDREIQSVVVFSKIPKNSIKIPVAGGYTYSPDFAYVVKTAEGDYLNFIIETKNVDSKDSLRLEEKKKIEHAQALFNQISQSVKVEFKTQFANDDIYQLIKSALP

B1: EcoP15I Mod subunit (commercial enzyme from New England Biolabs) (enzyme, Escherichia coli, UniProt P12364 1-644, looked up)
chain: MKKETIFSEVETANSKQLAVLKANFPQCFDKNGAFIQEKLLEIIRASEVELSKESYSLNWLGKSYARLLANLPPKTLLAEDKTHNQQEENKNSQHLLIKGDNLEVLKHMVNAYAEKVKMIYIDPPYNTGKDGFVYNDDRKFTPEQLSELAGIDLDEAKRILEFTTKGSSSHSAWLTFIYPRLYIARELMREDGTIFISIDHNEFSQLKLVCDEIFGEQNHVGDLVWKNATDNNPSNIAVEHEYIIVYTKNKEQLISEWKSNISDVKNLLVNIGEEFASKYTGNELQEKYTQWFREHRSELWPLDRYKYIDKDGIYTGSQSVHNPGKEGYRYDIIHPKTKKPCKQPLMGYRFPLDTMDRLLSEEKIIFGDDENKIIELKVYAKDYKQKLSSVIHLDGRVATNELKELFPEMTQPFTNAKTIKLVEDLISFACDGEGIVLDFFAGSGTTAHTVFNLNNKNKTSYQFITVQLDEPTKDKSDAMKHGYNTIFDLTKERLIRASKKNRDQGFKVYQLMPDFRAKDESELTLSNHTFFDDVVLTPEQYDTLLTTWCLYDGSLLTTPIEDVDLGGYKAHLCDGRLYLIAPNFTSEALKALLQKVDSDKDFAPNKVVFYGSNFESAKQMELNEALKSYANKKSIELDLVVRN
notes: Mod subunit of the Type III restriction endonuclease EcoP15I, Escherichia coli; also called EcoP15I NEB; commercially available EcoP15I; source: bought: NEB (catalogue no. R0646S)
Question: B1 was tested. Which “stoichiometry N” value [1] did it give?
Answer: The value was 2 Mod per Res.

B2: EcoPI specific 50-mer duplex (sDNA), native MS (dsDNA)
DNA 1: TGGCTTAGACCCAGCGCAGATACCAAAACTGTCCTTCTATTGACAATTCG
DNA 2: CGAATTGTCAATAGAAGGACAGTTTTGGTATCTGCGCTGGGTCTAAGCCA
Question: Does B2 bind [2]?
Answer: Result: binds

B3: EcoPI specific 50-mer duplex (sDNA), Hex (dsDNA)
DNA 1: TGGCTTAGACCCAGCGCAGATACCAAAACTGTCCTTCTATTGACAATTCG
DNA 2: CGAATTGTCAATAGAAGGACAGTTTTGGTATCTGCGCTGGGTCTAAGCCA
Question: Does B3 bind [3]?
Answer: Result: binds
